By Kd is commonly meant the constant that tells how readily two partners part at equilibrium. A high value points to weaker binding.

The target in assay [1] is T1, SAT C-terminal C10 peptide C-terminal 10 residues (Haemophilus influenzae, UniProt P43886).
T1 chain: GIDDGMNLNI
Briefly: PLP fluorescence titration.

Assay [2] has as its target T2, SAT C-terminal C10 peptide C-terminal 10 residues (Salmonella typhimurium, UniProt P29847).
T2 chain: HHTFEYGDGI
Briefly: PLP fluorescence titration.

B1: Cysteine synthase (HiCS) (protein)
chain: MAIYADNSYSIGNTPLVRLKHFGHNGNVVVKIEGRNPSYSVKCRIGANMVWQAEKDGTLTKGKEIVDATSGNTGIALAYVAAARGYKITLTMPETMSLERKRLLCGLGVNLVLTEGAKGMKGAIAKAEEIVASDPSRYVMLKQFENPANPQIHRETTGPEIWKDTDGKVDVVVAGVGTGGSITGISRAIKLDFGKQITSVAVEPVESPVISQTLAGEEVKPGPHKIQGIGAGFIPKNLDLSIIDRVETVDSDTALATARRLMAEEGILAGISSGAAVAAADRLAKLPEFADKLIVVILPSASERYLSTALFEGIEG
For the molecule B1, in assay [1], the Kd is 3.4 µM.

B2: Cysteine synthase (StCS) (protein)
chain: SKIYEDNSLTIGHTPLVRLNRIGNGRILAKVESRNPSFSVKCRIGANMIWDAEKRGVLKPGVELVEPTSGNTGIALAYVAAARGYKLTLTMPETMSIERRKLLKALGANLVLTEGAKGMKGAIQKAEEIVASDPQKYLLLQQFSNPANPEIHEKTTGPEIWEDTDGQVDVFISGVGTGGTLTGVTRYIKGTKGKTDLITVAVEPTDSPVIAQALAGEEIKPGPHKIQGIGAGFIPGNLDLKLIDKVVGITNEEAISTARRLMEEEGILAGISSGAAVAAALKLQEDESFTNKNIVVILPSSGERYLSTALFADLFTEKELQQ
As for B2, the Kd in assay [2] amounted to 0.29 µM.

(Values after paper PMC7948407 (2020).)
